Results from publication PMC8220723.

B1: ASCT2: N212Q (protein)
parent chain: MVADPPRDSKGLAAAEPTANGGLALASIEDQGAAAGGYCGSRDQVRRCLRANLLVLLTVVAVVAGVALGLGVSGAGGALALGPERLSAFVFPGELLLRLLRMIILPLVVCSLIGGAASLDPGALGRLGAWALLFFLVTTLLASALGVGLALALQPGAASAAINASVGAAGSAENAPSKEVLDSFLDLARNIFPSNLVSAAFRSYSTTYEERNITGTRVKVPVGQEVEGMNILGLVVFAIVFGVALRKLGPEGELLIRFFNSFNEATMVLVSWIMWYAPVGIMFLVAGKIVEMEDVGLLFARLGKYILCCLLGHAIHGLLVLPLIYFLFTRKNPYRFLWGIVTPLATAFGTSSSSATLPLMMKCVEENNGVAKHISRFILPIGATVNMDGAALFQCVAAVFIAQLSQQSLDFVKIITILVTATASSVGAAGIPAGGVLTLAIILEAVNLPVDHISLILAVDWLVDRSCTVLNVEGDALGAGLLQNYVDRTESRSTEPELIQVKSELPLDPLPVPTEEGNPLLKHYRGPAGDATVASEKESVM

Tests used:
[1] = molecular target: FuTraP-hASCT2-d17, human ASCT2 with a deletion of 17 amino acids of region C, fused to AcGFP (human) (UniProt Q15758)
[2] = molecular target: FuTraP-hASCT2-d17, human ASCT2 with a deletion of 17 amino acids of region C, fused to AcGFP (human) (UniProt Q15758); remark: listed apart in the source
[3] = molecular target: wild-type human ASCT2 fused to AcGFP (FuTraP-hASCT2-wt) (human) (UniProt Q15758)
[4] = confocal microscopy, AcGFP with membrane dye; conditions: glycan lost; control: wild type (FuTraP-hASCT2-wt)
[5] = infection, dsRed-positive cells by flow cytometry; conditions: glycan lost; control: wild type (FuTraP-hASCT2-wt)
[6] = flow cytometry, AcGFP MFI normalised to iRFP713 MFI; conditions: glycan lost; control: wild type (FuTraP-hASCT2-wt)

Molecule | infection of DF-1/LgBiT cells expressing the FuTraP variant by MCAS(Sync1-MSC16)dsRed, dsRed-positive cells by flow cytometry (reduced sensitivity compared to the wild type) [1] | spinoculation of cells expressing the FuTraP variant with MCAS(Sync1-MSC16)dsRed, infected (dsRed-positive) cells by flow cytometry [2] | spinoculation of cells expressing the FuTraP variant with MCAS(Sync1-MSC16)dsRed, infected (dsRed-positive) cells by flow cytometry [3] | localisation_or_trafficking [4] | other: receptor-mediated sensitivity to viral infection [5] | expression_or_secretion, percent_of_wt [6]
Syncytin-1 envelope glycoprotein of the chimeric virus MCAS(Sync1-MSC16)dsRed (cytoplasmic tail shortened to 16 amino acids) (from UniProt Q9UQF0 21-538) (natural protein) | 1.7% | 21% | 56% |  |  | 
B1 |  |  |  | no change | no change | decreases
